# Source: patent US20220008527A1 (AGENUS, published 2022)
# B1: polypeptide LGVVRPRALHRELDLVDDSPTPGSPGSFFRKNWLRLTW (SEQ ID NO: 77) (peptide)
# peptide: LGVVRPRALHRELDLVDDSPTPGSPGSFFRKNWLRLTW
# notes: also called polypeptide comprising PEP006; PEP006-containing polypeptide
# Target: T1, recombinant human heat shock cognate 71 kDa protein (Hsc70) (human, UniProt P11142 1-646, limits assumed)
# T1 construct: also called rhHsc70; human Hsc70
# Assay: size exclusion chromatography of polypeptide-Hsc70 mixtures, molar ratios 0.125:1 to 4:1 (FIG. 3A)
# T1 sequence (P11142 whole entry): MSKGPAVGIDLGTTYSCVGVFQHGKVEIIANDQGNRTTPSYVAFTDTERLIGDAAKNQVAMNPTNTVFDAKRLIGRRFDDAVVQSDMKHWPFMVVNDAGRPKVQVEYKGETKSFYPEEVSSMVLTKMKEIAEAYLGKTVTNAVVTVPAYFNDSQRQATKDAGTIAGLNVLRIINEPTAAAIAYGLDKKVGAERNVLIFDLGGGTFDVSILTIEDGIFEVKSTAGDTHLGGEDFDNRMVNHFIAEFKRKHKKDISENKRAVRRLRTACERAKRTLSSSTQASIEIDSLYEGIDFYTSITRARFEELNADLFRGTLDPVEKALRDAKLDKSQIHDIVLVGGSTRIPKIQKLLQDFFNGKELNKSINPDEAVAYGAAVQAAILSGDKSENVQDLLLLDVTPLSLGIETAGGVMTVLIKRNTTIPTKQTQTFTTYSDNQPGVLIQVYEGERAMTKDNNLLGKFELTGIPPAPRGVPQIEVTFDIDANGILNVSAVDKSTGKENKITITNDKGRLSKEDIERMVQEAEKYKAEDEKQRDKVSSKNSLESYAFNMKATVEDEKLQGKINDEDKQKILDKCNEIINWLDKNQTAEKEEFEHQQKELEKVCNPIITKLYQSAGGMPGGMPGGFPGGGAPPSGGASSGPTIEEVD
row,binding result,Binder
1,binds,B1

# Target: T1, recombinant human heat shock cognate 71 …
# Assay: SEC of peptide-Hsc70 mixture; peptide:Hsc70 molar ratio 1:1
row,Percent complexation with Hsc70 [%],Binder
1,75.6,FRNWLRLTW (Synthetic peptide) [PEP028]
2,69.6,FFRKNWIRITW (Synthetic peptide) [PEP013]
3,77,FFRKNFLRLTF (Synthetic peptide) [PEP027]
4,66.5,FFRKNWLKLWK (Synthetic peptide) [PEP058]
5,48.7,FFRKNRLLLTG (Synthetic peptide) [PEP002]
6,54.8,FFRKNRLWLTG (Synthetic peptide) [PEP005]
7,81.5,FFRKNWLRLTW (Synthetic peptide) [PEP006]
8,81,FFRKNWLRLLW (Synthetic peptide) [PEP009]
9,72.2,FFRKNWLKLRW (Synthetic peptide) [PEP057]
10,61.8,FFRKFWLRLTW (Synthetic peptide) [PEP008]
11,64.9,FFRKNWLRLFW (Synthetic peptide) [PEP010]
12,75.9,FFRKNWLKLKW (Synthetic peptide) [PEP055]
13,80.9,FFRKQWLRLTW (Synthetic peptide) [PEP014]
14,81.6,FFRKNWLRLKW (Synthetic peptide) [PEP011]
15,67.2,FFRKNWLLLTW (Synthetic peptide) [PEP003]
16,46.8,FFRKNLLRWTG (Synthetic peptide) [PEP004]
17,75.6,FFRKNLLRLTW (Synthetic peptide) [PEP155]
18,68.1,FFRKNLLRLTG (Synthetic peptide) [PEP001]
19,79.2,FFRKNWLKLTW (Synthetic peptide) [PEP012]

# Target: T1, recombinant human heat shock cognate 71 …
# Assay: SEC of peptide-Hsc70 mixture; peptide:Hsc70 molar ratio 0.25:1
row,Percent complexation with Hsc70 [%],Binder
1,24,FRNWLRLTW (Synthetic peptide) [PEP028]
2,25.6,FFRKNWIRITW (Synthetic peptide) [PEP013]
3,19.1,FFRKNFLRLTF (Synthetic peptide) [PEP027]
4,22.7,FFRKNWLKLWK (Synthetic peptide) [PEP058]
5,19.2,FFRKNRLLLTG (Synthetic peptide) [PEP002]
6,16,FFRKNRLWLTG (Synthetic peptide) [PEP005]
7,25.4,FFRKNWLRLTW (Synthetic peptide) [PEP006]
8,32.8,FFRKNWLRLLW (Synthetic peptide) [PEP009]
9,24.9,FFRKNWLKLRW (Synthetic peptide) [PEP057]
10,24.4,FFRKFWLRLTW (Synthetic peptide) [PEP008]
11,19.1,FFRKNWLRLFW (Synthetic peptide) [PEP010]
12,24.1,FFRKNWLKLKW (Synthetic peptide) [PEP055]
13,29.3,FFRKQWLRLTW (Synthetic peptide) [PEP014]
14,31.2,FFRKNWLRLKW (Synthetic peptide) [PEP011]
15,26.8,FFRKNWLLLTW (Synthetic peptide) [PEP003]
16,15.4,FFRKNLLRWTG (Synthetic peptide) [PEP004]
17,22.5,FFRKNLLRLTW (Synthetic peptide) [PEP155]
18,23.4,FFRKNLLRLTG (Synthetic peptide) [PEP001]
19,29.9,FFRKNWLKLTW (Synthetic peptide) [PEP012]

# Target: T1, recombinant human heat shock cognate 71 …
# Assay: SEC of peptide-Hsc70 mixture; peptide:Hsc70 molar ratio 2:1
row,Percent complexation with Hsc70 [%],Binder
1,84.1,FRNWLRLTW (Synthetic peptide) [PEP028]
2,81.9,FFRKNWIRITW (Synthetic peptide) [PEP013]
3,85.6,FFRKNFLRLTF (Synthetic peptide) [PEP027]
4,78.8,FFRKNWLKLWK (Synthetic peptide) [PEP058]
5,64.8,FFRKNRLLLTG (Synthetic peptide) [PEP002]
6,67.6,FFRKNRLWLTG (Synthetic peptide) [PEP005]
7,88.3,FFRKNWLRLTW (Synthetic peptide) [PEP006]
8,85.3,FFRKNWLRLLW (Synthetic peptide) [PEP009]
9,82.8,FFRKNWLKLRW (Synthetic peptide) [PEP057]
10,79.1,FFRKFWLRLTW (Synthetic peptide) [PEP008]
11,79.3,FFRKNWLRLFW (Synthetic peptide) [PEP010]
12,83.7,FFRKNWLKLKW (Synthetic peptide) [PEP055]
13,88.1,FFRKQWLRLTW (Synthetic peptide) [PEP014]
14,87.8,FFRKNWLRLKW (Synthetic peptide) [PEP011]
15,81.3,FFRKNWLLLTW (Synthetic peptide) [PEP003]
16,62.5,FFRKNLLRWTG (Synthetic peptide) [PEP004]
17,82.9,FFRKNLLRLTW (Synthetic peptide) [PEP155]
18,82.5,FFRKNLLRLTG (Synthetic peptide) [PEP001]
19,86.2,FFRKNWLKLTW (Synthetic peptide) [PEP012]

# Target: T1, recombinant human heat shock cognate 71 …
# Assay: SEC of peptide-Hsc70 mixture; peptide:Hsc70 molar ratio 4:1
row,Percent complexation with Hsc70 [%],Binder
1,87.5,FRNWLRLTW (Synthetic peptide) [PEP028]
2,87.7,FFRKNWIRITW (Synthetic peptide) [PEP013]
3,90,FFRKNFLRLTF (Synthetic peptide) [PEP027]
4,83.9,FFRKNWLKLWK (Synthetic peptide) [PEP058]
5,78.8,FFRKNRLLLTG (Synthetic peptide) [PEP002]
6,77.6,FFRKNRLWLTG (Synthetic peptide) [PEP005]
7,91.8,FFRKNWLRLTW (Synthetic peptide) [PEP006]
8,89,FFRKNWLRLLW (Synthetic peptide) [PEP009]
9,88.3,FFRKNWLKLRW (Synthetic peptide) [PEP057]
10,81.6,FFRKFWLRLTW (Synthetic peptide) [PEP008]
11,86.5,FFRKNWLRLFW (Synthetic peptide) [PEP010]
12,86.3,FFRKNWLKLKW (Synthetic peptide) [PEP055]
13,90.3,FFRKQWLRLTW (Synthetic peptide) [PEP014]
14,90.4,FFRKNWLRLKW (Synthetic peptide) [PEP011]
15,87.6,FFRKNWLLLTW (Synthetic peptide) [PEP003]
16,75.3,FFRKNLLRWTG (Synthetic peptide) [PEP004]
17,86.6,FFRKNLLRLTW (Synthetic peptide) [PEP155]
18,90.1,FFRKNLLRLTG (Synthetic peptide) [PEP001]
19,89.5,FFRKNWLKLTW (Synthetic peptide) [PEP012]

# Target: T1, recombinant human heat shock cognate 71 …
# Assay: SEC of peptide-Hsc70 mixture; peptide:Hsc70 molar ratio 0.5:1
row,Percent complexation with Hsc70 [%],Binder
1,46.4,FRNWLRLTW (Synthetic peptide) [PEP028]
2,48.3,FFRKNWIRITW (Synthetic peptide) [PEP013]
3,49,FFRKNFLRLTF (Synthetic peptide) [PEP027]
4,43.5,FFRKNWLKLWK (Synthetic peptide) [PEP058]
5,32,FFRKNRLLLTG (Synthetic peptide) [PEP002]
6,32.7,FFRKNRLWLTG (Synthetic peptide) [PEP005]
7,53.4,FFRKNWLRLTW (Synthetic peptide) [PEP006]
8,63.5,FFRKNWLRLLW (Synthetic peptide) [PEP009]
9,50,FFRKNWLKLRW (Synthetic peptide) [PEP057]
10,38.3,FFRKFWLRLTW (Synthetic peptide) [PEP008]
11,42.2,FFRKNWLRLFW (Synthetic peptide) [PEP010]
12,52.2,FFRKNWLKLKW (Synthetic peptide) [PEP055]
13,54.4,FFRKQWLRLTW (Synthetic peptide) [PEP014]
14,58.2,FFRKNWLRLKW (Synthetic peptide) [PEP011]
15,45.6,FFRKNWLLLTW (Synthetic peptide) [PEP003]
16,29,FFRKNLLRWTG (Synthetic peptide) [PEP004]
17,48.1,FFRKNLLRLTW (Synthetic peptide) [PEP155]
18,44.7,FFRKNLLRLTG (Synthetic peptide) [PEP001]
19,58.2,FFRKNWLKLTW (Synthetic peptide) [PEP012]
